Source: patent US6645501B2, “Anti-pathogen system and methods of use thereof” (Washington University, priority 1997, dated 2003)
“Also recorded” adds a separate entry of the source.

B1: TAT-Casp3WT: TAT-D site-p17-A site-p12 modified Caspase-3 fusion protein, Pro domain replaced by TAT transduction domain (protein)
chain: GRKKRRQRRRGYPYDVPDYACTERQANFLGKIWPGISLDNSYKMDYPEMGLCIIINNKNFHKSTGMTSRSGTDVDAANLRETFRNLKYEVRNKNDLTREEIVELMRDVSKEDHSKRSSFVCVLLSHGEEGIIFGTNGPVDLKKITNFFRGDRCRSLTGKPKLFIIQACRGTELDCGIETSQVSQNYPIVQNLQGVDDDMACHKIPVEADFLYAYSTAPGYYSWRNSKDGSWFIQSLCAMLKQYADKLEFMHILTRVNRKVATEFESFSFDATFHAKKQIPCIVSMLTKELYFYH
modifications: left off: small tags and cut ends
notes: TAT-D site-p17-A site-p12 modified Caspase-3 fusion protein, Pro domain replaced by TAT transduction domain
B2: TAT-p16: control TAT-p16 fusion protein with no HIV cleavage site (protein)
chain: GRKKRRQRRRGMEPAAGSSMEPSADWLATAAARGRVEEVRALLEAGALPNAPNSYGRRPIQVMMMGSARVAELLLLHGAEPNCADPATLTRPVHDAAREGFLDTLVVLHRAGARLDVRDAWGRLPVDLAEELGHRDVARYLRAAAGGTRGSNHARIDAAEGPSDIPD
modifications: left off: small tags and cut ends
notes: control TAT-p16 fusion protein with no HIV cleavage site

Key:
Jurkat T cells [1] = assay: FACS and confocal analysis of FITC-labeled TAT fusion proteins added to Jurkat T cells; format: cell-based; conditions: for cells transduced: FITC-labeled protein added to media of Jurkat T cells
Description: To test the ability of TAT-Casp3 proteins to transduce into cells, TAT-Casp3 proteins were conjugated to fluorescein (FITC), then added directly to the media of Jurkat T cells and analyzed by Flow Cytometry (FACS) (FIGS. 9B-C). Both TAT-Casp3WT and TAT-Casp3MUT proteins rancidly transduced into ˜100% of cells, achieving maximum intracellular concentration in less than 20 min. In addition, based on the narrow peak width before and after addition of FITC labeled proteins, individual cells within the population contain near identical intracellular concentrations of TAT-Casp3-FITC protein. […] Thus, TAT-Casp3 proteins readily transduce into 100% of all cells inca rapid and concentration-dependent fashion.
The generation and transduction of TAT fusion proteins shown in FIGS. 9A-E are explained in more detail as follows: FIG. 9A. Diagram depicting HIV cleavage site sequences and domains of TAT fusion proteins. FIGS. 9B-D. FACS kinetic analysis of fluorescein (FITC) labeled TAT-Casp3WT, TAT-Casp3MUT and TAT-HIV Pr proteins added to cells at 0, 20 and 30 min. FIG. 9E. FACS dose analysis of 3, 6, and 12 nM TAT-Casp3WT-FITC protein added to cells at I hr post-addition. Note rapid, concentration-dependent transduction of all FITC labeled protein into ˜100% of cells and near identical intracellular concentration within the population as measured by FACS peak width of control vs. transduced cells.
(§1) 1. […] See Lissy, N. A., et al. (supra). […] See Ezhevsky, S. A., et al. (supra). […] See Xiang, J., et al., (supra). […] See Xiang, J., et al., (supra). […] See Ezhevsky, S. A., et al. (supra).

Jurkat T cells [2] = assay: Cytotoxicity of TAT-Casp3 on uninfected Jurkat T cells, viability by Trypan Blue exclusion; conditions: co-transduced with TAT-HIV Pr
Description: In addition, the ability of TAT-Casp3 protein to induce apoptosis in cells co-transduced with TAT-HIV Pr protein was tested. Jurkat T cells were treated with 100 nM TAT-Casp3WT or TATCasp3MUT proteins alone or in combination with 50 nM TAT-HIV Pr protein and assayed for cell viability 16 hr post-treatment (FIG. 11A). […] See Salvensen, G. S., et al., Henkart, P. A., Cohen, G. M., Woo, M., et al., Enari, M. et al., Liu, X., et al. (supra).
FIG. 11A Cultures of Jurkat T cells were transduced with combinations of TAT-Casp3WT (WT), TAT-Casp3MUT (MUT) and TAT-HIV Protease (Pr) proteins for 16 hr and analyzed for cell viability. […] FIG. 11B Cultures of Jurkat T cells were co-transduced with TAT-Casp3WT (WT), TAT-Casp3MUT (MUT) proteins in combination with TAT-HIV Pr (Pr) protein and analyzed for kinetics of cell viability as indicated.
1. Cell culture-p16(−) Jurkat T cells (ATCC) were grown as described. See Lissy, N. A., et al. (supra). For in vivo substrate cleavage, 1×10^6 cells were transduced with 100 nM TAT-p16, TAT-A-p16, TAT-Casp3MUT and/or 50 nM TAT-HIV Pr proteins for 1, 5 or 8 hr as indicated and analyzed by anti-p16 (Santa Cruz) or anti-Casp3 (Pharmingen) immunoblot analysis. See Ezhevsky, S. A., et al. (supra). For cytotoxicity of TAT-Casp3 on uninfected cells, 1×10^6 cells were transduced with 100 nM TAT-Casp3WT, TAT-Casp3MUT and/or 50 nM TAT-HIV Pr proteins for 16 hr and assayed for viability by Trypan Blue exclusion and/or genomic DNA damage by TUNEL assay (Trevigen). Number of TUNEL positive cells reported as per high-powered microscopic field with four fields per experiment averaged. TAT-Casp3 activity was measured by incubation of 20 μg of whole cell lysate with 50 μM DEVD-AFC and fluorescent AFC formation measured on a FL500 microplate fluorescence reader (Bio-Tek) as described. See Xiang, J., et al., (supra). Cells were preincubated with 1 μg/ml Ritonavir (Abbott Labs) for 1 hr prior to transduction. For cytotoxicity of TAT-Casp3 on infected cells, Jurkat cultures were infected with 100 ng p24 Ag equivalent NLHX HIV-I strain for 7-14 days, assayed microscopically for cytopathic effects, then replated at 1×10^6/ml and transduced with 100 nM of TAT-Casp3WT or TAT-Casp3MUT proteins for 16 hr followed by exclusionary dye viability analysis. Infected cells were pretreated with 1 μg/ml Ritonavir for 24 hr prior to transduction with TAT-Casp3WT protein. See Xiang, J., et al., (supra). For Flow Cytometry (FACS) analysis, fluorescein (FITC) conjugated TAT fusion proteins were added to Jurkat T cell culture media and 1×10^4 cells were analyzed by FACS as described. See Ezhevsky, S. A., et al. (supra).

Jurkat T cells [3] = assay: TUNEL assay for degraded genomic DNA in transduced Jurkat T cells; format: cell-based
Description: (§2) Additionally, transduced cultures were tested for degraded genomic DNA by TUNEL assay. See Coates, P. J., Molecular methods for the identification of apoptosis in tissues. J. Histotechnology 17: 261 (1994). […] Activation of TAT-Casp3 was also assayed by its ability to cleave an artificial Caspase-3 substrate. […] See Xiang, J., et al., Bax-induced cell death may not require interleukin 1B-converting enzyme-like proteases. Proc. Natl. Acad. Sci. USA 93: 14550 (1996).
(§3) The HIV Protease activates TAT-Casp3WT protein shown in FIGS. 12A-B are explained in more detail as follows. FIG. 12A. […] Abscissa: TUNEL positive cells per high-powered microscopic field; Ctrl, control addition of PBS to cultures; error bars represent SD. FIG. 12B. […] Ctrl, control PBS addition; ocFAS crosslinking, positive control.
as §1

[4] = test system: caspase-3 activity (DEVD-AFC cleavage); assay: Caspase-3 enzyme assay, cleavage of DEVD-AFC by whole cell lysate of transduced Jurkat T cells; format: cell-based; conditions: 6 hr
Description: as §2, §3, §1

[5] = test system: Jurkat T cells infected with the NLHX strain of HIV-I; assay: Cytotoxicity of TAT-Casp3 on HIV infected Jurkat cultures, exclusionary dye viability analysis; format: cell-based
Source text: To make this determination, Jurkat T cells were infected for 7-14 days with the NLHX strain of HIV-I and examined microscopically for HIV cytopathic effects. See Westervelt, P., et al., Identification of a determinant within the HIV-1 surface envelope glycoprotein critical for productive infection of cultured primary monocytes. Proc. Natl. Acad. Sci USA 88: 3097 (1991). At the start of each transduction experiment approximately 50% of the culture was HIV positive. HIV infected cultures were transduced for 16 hr with 100 nM TAT-Casp3WT or TATCasp3MUT protein and then assayed for cell viability (FIG. 13). […] In addition, we detected both the appearance of cells containing <2N DNA content and cells with condensed nuclei in TAT-Casp3 treated cells.
To determine if TAT-Casp3WT induced apoptosis was dependent on active HIV Protease in the infected cultures, HIV infected cultures were pretreated with 1 μg/ml Ritonavir prior to transduction with 100 nM TAT-Casp3WT protein (FIG. 5). […] In addition, the observed increased survival of Ritonavir treated cells is consistent with increased longevity of protease inhibitor treated HIV infected cells. See Coffin, J. M., et al. (supra).
The specific killing of HIV infected cells shown in FIG. 5 is explained in more detail as follows. Jurkat T cells were infected for 7-14 days with HIV strain NLHX, then transduced with TAT-Casp3WT (WT) or TAT-Casp3MUT (MUT) proteins for 16 hr and assayed for cell viability. […] Ctrl, control addition of PBS to cultures; abscissa, % viability of HIV positive cells in the population at start of transduction; error bars represent SD.
as §1

[6] = test system: Jurkat T-cells infected by HIV; assay: Cleavage of transduced p16 fusion proteins in HIV-infected Jurkat T-cells, Western/immunoblot with anti-p16 antibody; format: cell-based; conditions: after 4, 8 and 12 hours
Description: Purified p16 fusion proteins were individually transduced into Jurkat T-cells infected by HIV. Methods for infecting the Jurkat T-cells with HIV and transducing fusion proteins are described in examples, which follow. After 4, 8 and 12 hours, the cells are analyzed for cleavage of the fusion protein by Western/immunoblot analysis using a commercially available anti-P16 antibody (Santa Cruz). As a control, the p16 cDNA was fused to the pTAT vector described in Example 1 to produce the vector shown in FIG. 3D (no HIV protease cleavage site). That vector encoded a p16 fusion protein fused to TAT that was not cleaved in the infected cells.

HIV Protease = biological target: T1, HIV Protease (Human immunodeficiency virus type 1 group M subtype B, UniProt P04585); assay: In vivo substrate cleavage by co-transduced TAT-HIV Pr in Jurkat T cells, immunoblot; format: cell-based; conditions: 100 nM substrate, 50 nM TAT-HIV Pr, Jurkat T cells, immunoblot
T1 construct: PCR cloning the HIV Protease gene from HXB2R HIV strain; 6xHis (from the pTAT vector) (N); made in house; the purified protein was added to Jurkat T cells
Description: To assay for in vivo cleavage, p 16(−) Jurkat T cells were transduced with 100 nM TAT-Ap16 or control TAT-p16 protein (no HIV cleavage site) alone or in combination with 50 nM TATHIV Pr fusion protein for 5 hr and analyzed by anti-p16 immunoblot for in vivo cleavage at the HIV A proteolytic cleavage site (FIG. 10A). […] Size analysis of the cleaved TAT-A-p 16 protein was consistent with retention of the residual HIV half site present on the N′ terminus of p 16 (FIG. 10A, see lane 4 vs. 5).
Further, the TAT-Casp3MUT protein was transduced in combination with TAT-HIV Pr protein into cells (FIG. 10B).
The in vivo processing in co-transduced cells shown in FIGS. 10A and 10B is explained in more detail as follows. FIG. 10A. Cultures of p16(−) Jurkat T cells were transduced with TAT-p 16 or TAT-A-p 16 substrate proteins in combination with TATHIV Pr proteins for 5 hr and subjected to anti-p 16 immunoblot analysis. […] WCE, HepG2 whole cell lysate containing wild type endogenous p16; A-p16, cleaved TAT-A-16 product retaining the HIV half site on p16. FIG. 10B. Cultures of Jurkat T cells were transduced with TATCasp3MUT protein (TAT-“D” site-p 17 domain-“A” site-p12 domain) alone or in combination with TAT-HIV Pr (Pr) protein as indicated and immunoblotted with anti-Caspase-3 antibodies specific for the p17 domain. TAT-D-p17-A, cleaved product of TAT-Casp3 containing the N′ terminal HIV A half site.
as §1

Molecule	dose analysis of protein transduction (Jurkat T cells [1]; 3, 6 and 12 nM, 1 hr post-addition, at equilibrium)	intracellular localisation by confocal microscopy (Jurkat T cells [1]; FITC-labeled protein)	cells transduced (Jurkat T cells [1])	appearance of cells containing <2N DNA content (Jurkat T cells [2])	earliest detection of cellular death post-transduction (Jurkat T cells [2])	kinetic analysis of cell death (shape of curve) (Jurkat T cells [2])	TUNEL positive cells, protein transduced alone (Jurkat T cells [3]; 100 nM TAT-Casp3 or 50 nM TAT-HIV Pr)	TUNEL positive cells, co-transduced with TAT-HIV Pr (Jurkat T cells [3]; 100 nM plus 50 nM TAT-HIV Pr)	caspase activity, co-transduced with TAT-HIV Pr ([4]; 100 nM plus 50 nM TAT-HIV Pr)	caspase activity, protein transduced alone [4]	effect on viability of HIV positive cells ([5]; 100 nM, 16 hr, cultures approximately 50% HIV positive)	appearance of cells containing <2N DNA content and cells with condensed nuclei ([5]; HIV infected cultures)	cleavage of the fusion protein in HIV-infected cells [6]	cleavage at the HIV cleavage site when co-transduced with TAT-HIV Pr (HIV Protease)
B1	concentration-dependency	both cytoplasmic and nuclear compartments	~100%	detected	4 h	linear killing curve	only background levels; also recorded: remained at background levels	marked increase; also recorded: specific TUNEL positive cells	marked increase in caspase activity that was greater than αFAS treatment; also recorded: specific activation of caspase-3 activity	only background levels	dramatic loss of HIV positive cells; also recorded: efficiently kills a large percentage of HIV positive cells	detected	–	–
B2	–	–	100%	–	–	–	–	–	–	–	–	–	not cleaved	not cleaved
